Measurements taken from patent US20220267415A1.

B1: anti-SARS-CoV2-09 IgG (antibody, V domains shown)
VH: QVQLHQWGAGLLKPSETLSRTCAVYGGSFSGYYWTWIRQAPGKGLEWIGEINHGGSTRYNPSLESRVSISVDTSKKQFSLELRSVTAADTAIYYCARGYDTNWYGDGYNWFDPWDRGTLVTVSS
VL: QSALTQDPSVSVALGQTVRITCQGDSLRGSFASWYRQKPGQAPVLVIFGINNRPSGVPDRFSGSSSGNTASLTITGAQAEDEADYYCNSRESNSNRILFGGGTKVTVL
B2: anti-SARS-CoV2-16 IgG (antibody, V domains shown)
VH: B1 VH
VL: QAVVTQPPSVSGTPGQRVTISCSGSSSSIGSNTVHWYQHLPGTAPKLLMYNNNERPSGVPARFSGSKSGTSASLVITGLQADDEAEYYCQSYDTGLSGHVFGSGTELTVL

Target: recombinant SARS-CoV-2 Receptor Binding Domain (RBD) with a his tag (ATUM, Cat. 65639.1.a) (SARS-CoV-2), P0DTC2
Test: ELISA on coated RBD-his
Conditions: remark: other sources report otherwise

Binder	EC50 [nM]
B1	2.3
B2	4.2
